The source of these data is publication PMC5714350.

Holding throughout (details): other: dynamic light scattering
Data set [1] can be described thus: dynamic light scattering; FXN^81-210 with ferric iron (FeCl3 in HEPES pH 7.5), Fe3+:protein 6:1, 8:1, 10:1.
Data set [2] in a line: dynamic light scattering; FXN^81-210 with Fe2+ 6:1 for 15 min, then chelator (deferiprone, DFO or BIPY) at 3 times the amount of iron; room temperature.
A short description of data set [3]: dynamic light scattering; FXN^81-210 2.5 mg/ml (0.17 mM) with ammonium iron (II) sulfate, aerobic, Fe2+:protein 2:1, 4:1, 5:1, 6:1, 10:1; room temperature; profiles every 5 min for 2 h; volume distribution.

On to “Human frataxin isoform 81–210 (FXN^81-210)”, for which, in data set [1], the % of particles in the monomer range (hydrodynamic radius 1.6–3 nm), with iron (Fe3+ 6:1) was determined as 97%; the % of particles with hydrodynamic radius 6–8.5 nm (oligomers), with iron (Fe3+ 8:1) came to 84.4%; the % of particles with hydrodynamic radius 8.5–14 nm (oligomers), with iron (Fe3+ 6:1) worked out at 3%; the % of particles with hydrodynamic radius 8.5–14 nm (oligomers), with iron (Fe3+ 10:1) turned out to be 86.8%. In data set [1], this substance showed a % of particles with hydrodynamic radius 15–25 nm (oligomers), with iron (Fe3+ 8:1) of 15.6%. In data set [2], this substance yielded a % of particles in the monomer range (hydrodynamic radius 1.6–2.1 nm), with iron (Fe2+ 6:1) and BIPY of 92%; a % of particles in the monomer range (hydrodynamic radius 1.6–2.1 nm), with iron (Fe2+ 6:1) and deferiprone of 97%; a % of particles with hydrodynamic radius 6–8.5 nm (oligomers), with iron (Fe2+ 6:1) and BIPY of 8%; a % of particles with hydrodynamic radius 6–8.5 nm (oligomers), with iron (Fe2+ 6:1) and DFO of 95%. In data set [2], the % of particles with hydrodynamic radius 8.5–14 nm (oligomers), with iron (Fe2+ 6:1) and deferiprone stood at 3%; the % of particles with hydrodynamic radius 15–25 nm (oligomers), with iron (Fe2+ 6:1) and DFO came to 5%. In addition, in data set [3], the % of particles in the monomer range (hydrodynamic radius 1.6–2.1 nm), with iron (Fe2+ 6:1) was 92%; the % of particles with hydrodynamic radius 6–8.5 nm (oligomers), with iron (Fe2+ 6:1) amounted to 8%; the “% of particles with mean hydrodynamic radius of about 5 nm (oligomers), with iron (Fe2+ 10:1, 60 min)” value is reported as “The major fraction of the oligomers (88%)”.
